# Data from patent publication US20260174875A1 (Novo Nordisk A/S, priority 2023, published 2026).
# Numbered stars: 1 amine (or outer) side, 2 acyl side, 3 side chain; on linkers, the order of the positions; unused ones are H or OH. Square brackets hold non-standard residues; d marks the D form. Side chains are listed from the residue outwards. * marks the point of attachment. C20 diacid = O=C(O)CCCCCCCCCCCCCCCCCCC(=O)*; C18 diacid = O=C(O)CCCCCCCCCCCCCCCCC(=O)*; γGlu = O=C(O)[C@H](CCC(=O)[*:2])N[*:1]; Chem. 29 = not defined here; AEEA = NCCOCCOCC(=O)O; Aib = CC(C)(N)C(=O)O
# B1: Compound 97 (peptide)
# peptide: Y[Aib]EGTFTSDYSILLEEQAAREFIEWLLAGGPSSGAGQAPGASHLSTAQTQRLSAELHK([AEEA-AEEA-γGlu-C18 diacid])LATLPRTETGSGSP-NH2
# B2: Compound 94 (peptide)
# peptide: Y[Aib]EGTFTSDYSILLEEQAAREFIEWLLAGGPSRGEASHLSTAQTQRLSAELHK([AEEA-AEEA-γGlu-C20 diacid])LATLPRTETGSGSP-NH2
# B3: Compound 86 (peptide)
# peptide: H[Aib]HGTFTSDYSILLEEQAAREFIEWLLAGGPSK([AEEA-AEEA-γGlu-C18 diacid])GAPPPSGGGASELSTAALGRLSAELHRLATLPRTETGSGSP-NH2
# B4: Compound 89 (peptide)
# peptide: H[Aib]HGTFTSDYSILLEEQAAREFIEWLLAGGPSSGEASHLSTAALGRLSAELHRLK([AEEA-AEEA-γGlu-C18 diacid])TLPRTETGSGSP-NH2
# B5: Compound 92 (peptide)
# peptide: H[Aib]HGTFTSDYSILLEEQAAREFIEWLLAGGPSSGAGQAPGQAPGASHLSTAQTQRLSAELHRLATLPK([AEEA-AEEA-γGlu-C18 diacid])TETGSGSP-NH2
# B6: Compound 88 (peptide)
# peptide: H[Aib]HGTFTSDYSILLEEQAAREFIEWLLAGGPSSGEASHLSTAALGRLSAELHK([AEEA-AEEA-γGlu-C18 diacid])LATLPRTETGSGSP-NH2
# B7: Compound 10 (peptide)
# peptide: Y[Aib]EGTFTSDYSILLEEQAAREFIEWLLAGGPSK(Chem. 29)GAPPPSGGGEASELSTAALGRLSAELHELATLPRTETGSGSP-NH2
# modifications: reading uncertain
# B8: Compound 96 (peptide)
# peptide: Y[Aib]EGTFTSDYSILLEEQAAREFIEWLLAGGPSGGGGEASHLSTAQTQRLSAELHK([AEEA-AEEA-γGlu-C20 diacid])LATLPRTETGSGSP-NH2
# B9: Compound 85 (peptide)
# peptide: H[Aib]HGTFTSDYSILLEEQAAREFIEWLLAGGPSSGEASHLSTAQTQRLSAELHK([AEEA-AEEA-γGlu-C18 diacid])LATLPRTETGSGAP-NH2
# B10: Compound 98 (peptide)
# peptide: Y[Aib]EGTFTSDYSILLEEQAAREFIEWLLAGGPSSGAGQAPGQAPLASHLSTAQTARLSAELHK([AEEA-AEEA-γGlu-C18 diacid])LATLPRTETGSGSP-NH2
# B11: Compound 90 (peptide)
# peptide: H[Aib]HGTFTSDYSILLEEQAAREFIEWLLAGGPSSGEASHLSTAALGRLSAELHRLATLPK([AEEA-AEEA-γGlu-C18 diacid])TETGSGSP-NH2
# B12: Compound 91 (peptide)
# peptide: H[Aib]HGTFTSDYSILLEEQAAREFIEWLLAGGPSSGAGQAPGQAPGASHLSTAQTQRLSAELHRLK([AEEA-AEEA-γGlu-C18 diacid])TLPRTETGSGSP-NH2
# B13: Compound 87 (peptide)
# peptide: H[Aib]HGTFTSDYSILLEEQAAREFIEWLLAGGPSSGEASHLSTAALGRLSAK([AEEA-AEEA-γGlu-C18 diacid])LHRLATLPRTETGSGSP-NH2
# B14: Compound 95 (peptide)
# peptide: Y[Aib]EGTFTSDYSILLEEQAAREFIEWLLAGGPSGGGGEASHLSTAQTQRLSAELHK([AEEA-AEEA-γGlu-C18 diacid])LATLPRTETGSGSP-NH2
# B15: Compound 93 (peptide)
# peptide: H[Aib]HGTFTSDYSILLEEQAAREFIEWLLAGGPSSGAGQAPGQAPLASHLSTAQTQRLSAELHK([AEEA-AEEA-γGlu-C18 diacid])LATLPRTETGSGSP-NH2
# Columns and labels:
# Experiment in all cases: cell-based or functional assay
# [1] = biological target: T1, human GIP receptor (human, UniProt P48546 22-466)
# T1 sequence (looked up): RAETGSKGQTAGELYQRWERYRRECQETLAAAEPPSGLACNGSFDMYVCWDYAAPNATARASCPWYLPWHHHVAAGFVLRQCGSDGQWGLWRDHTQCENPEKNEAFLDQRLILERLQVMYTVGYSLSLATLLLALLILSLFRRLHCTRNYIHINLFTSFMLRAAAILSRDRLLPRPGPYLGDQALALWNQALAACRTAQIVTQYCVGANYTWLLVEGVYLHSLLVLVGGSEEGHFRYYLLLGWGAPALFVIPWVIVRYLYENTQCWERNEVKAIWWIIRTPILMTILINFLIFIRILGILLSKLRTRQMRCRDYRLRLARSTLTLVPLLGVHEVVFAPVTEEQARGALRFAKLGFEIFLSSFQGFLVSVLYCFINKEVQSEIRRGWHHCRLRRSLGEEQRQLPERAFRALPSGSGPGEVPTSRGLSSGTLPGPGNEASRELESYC
# [2] = biological target: T2, human GLP-1 receptor (human, UniProt P43220 24-463)
# [3] = biological target: T3, human amylin-3(a) receptor (human, UniProt P30988 25-474; O60896 24-148)
# T3 sequence (looked up) 1: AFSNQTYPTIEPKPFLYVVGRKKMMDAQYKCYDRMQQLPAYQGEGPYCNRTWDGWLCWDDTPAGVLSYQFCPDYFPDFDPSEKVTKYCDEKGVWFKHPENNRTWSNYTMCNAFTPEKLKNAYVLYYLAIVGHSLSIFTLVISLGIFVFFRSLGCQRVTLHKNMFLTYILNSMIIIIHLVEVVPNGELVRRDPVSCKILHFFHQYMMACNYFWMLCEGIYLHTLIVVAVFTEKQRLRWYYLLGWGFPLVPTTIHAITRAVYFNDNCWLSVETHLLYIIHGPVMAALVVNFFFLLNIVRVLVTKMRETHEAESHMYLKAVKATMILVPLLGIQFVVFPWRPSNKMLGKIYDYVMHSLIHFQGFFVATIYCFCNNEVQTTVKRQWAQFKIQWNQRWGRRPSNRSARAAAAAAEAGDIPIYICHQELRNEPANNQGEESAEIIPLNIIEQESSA
# T3 sequence (looked up) 2: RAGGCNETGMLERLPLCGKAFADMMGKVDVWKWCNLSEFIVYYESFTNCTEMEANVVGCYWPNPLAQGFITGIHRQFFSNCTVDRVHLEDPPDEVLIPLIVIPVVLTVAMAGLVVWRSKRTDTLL
# [4] = biological target: T1, human GIP receptor; remark: listed apart in the source
# [5] = biological target: T2, human GLP-1 receptor; remark: listed apart in the source
# [6] = biological target: T3, human amylin-3(a) receptor; remark: listed apart in the source
Binder,"hGIPR Potency, 1% HSA, EC50 [pM] [1] [pM]","hGLP-1R Potency, 1% HSA, EC50 [pM] [2] [pM]","hAMYR3 Potency, 1% HSA, EC50 [pM] [3] [pM]","hGIPR Potency, no HSA, EC50 [pM] [4] [pM]","hGLP-1R Potency, no HSA, EC50 [pM] [5] [pM]","hAMYR3 Potency, no HSA, EC50 [pM] [6] [pM]"
B1,8.38,109,132,2.3,16.1,2.81
B2,29.5,130,377,2.9,16.1,3.91
B3,122,130,58.4,5.11,6.69,3.31
B4,30.6,29.5,39.7,6.47,3.86,3.12
B5,8.53,13.4,75.1,3.12,2.55,2.64
B6,40.4,48.8,102,5.68,4.12,3.7
B7,42.4,246,175,2.11,13.8,6.8
B8,29.9,162,595,3.62,16.8,3.73
B9,14.6,30.3,250,2.71,3.52,4.4
B10,11.2,43.1,108,2.58,13.3,2.3
B11,32.5,38.6,183,5.4,4.16,5.45
B12,9.31,17.4,28.8,3.21,3.79,2.26
B13,38.6,39.3,36.5,7.26,8.49,4.99
B14,22.8,146,233,3.13,17.9,3.76
B15,8.58,16.4,66.4,2.54,4.11,2.23
